The text below walks through data of article PMC12356973.

The target in this series is nsp10 (two [Fe4S4]);nsp16 (SARS-CoV-2;SARS-CoV-2, UniProt P0DTD1;P0DTD1 4254-4392;6799-7096, |). As to the kind of experiment: EMSA. The settings on record: protein: recombinant;recombinant; copies: 1;1; single strand.

In the case of AUUAAAGGUU (ssRNA, 5' m7Gppp cap (Cap-0), Vaccinia capping system) [Cap-0 RNA (7MeGppp RNA)], the binding result is given as “binds”.
